Key:
[1] = anti-Flag immunofluorescence, nucleus/cytoplasm densitometry; settings: glycan lost
[2] = HeLa subcellular fractionation, anti-Flag western
[3] = OGT enzyme activity (Supplementary Fig. 5a,b); settings: glycan lost; control: WT-OGT

B1: O-GlcNAc transferase (OGT): Mono-OGT S389A (protein)
parent chain: MASSVGNVADSTGLAELAHREYQAGDFEAAERHCMQLWRQEPDNTGVLLLLSSIHFQCRRLDRSAHFSTLAIKQNPLLAEAYSNLGNVYKERGQLQEAIEHYRHALRLKPDFIDGYINLAAALVAAGDMEGAVQAYVSALQYNPDLYCVRSDLGNLLKALGRLEEAKACYLKAIETQPNFAVAWSNLGCVFNAQGEIWLAIHHFEKAVTLDPNFLDAYINLGNVLKEARIFDRAVAAYLRALSLSPNHAVVHGNLACVYYEQGLIDLAIDTYRRAIELQPHFPDAYCNLANALKEKGSVAEAEDCYNTALRLCPTHADSLNNLANIKREQGNIEEAVRLYRKALEVFPEFAAAHSNLASVLQQQGKLQEALMHYKEAIRISPTFADAYSNMGNTLKEMQDVQGALQCYTRAIQINPAFADAHSNLASIHKDSGNIPEAIASYRTALKLKPDFPDAYCNLAHCLQIVCDWTDYDERMKKLVSIVADQLEKNRLPSVHPHHSMLYPLSHGFRKAIAERHGNLCLDKINVLHKPPYEHPKDLKLSDGRLRVGYVSSDFGNHPTSHLMQSIPGMHNPDKFEVFCYALSPDDGTNFRVKVMAEANHFIDLSQIPCNGKAADRIHQDGIHILVNMNGYTKGARNELFALRPAPIQAMWLGYPGTSGALFMDYIITDQETSPAEVAEQYSEKLAYMPHTFFIGDHANMFPHLKKKAVIDFKSNGHIYDNRIVLNGIDLKAFLDSLPDVKIVKMKCPDGGDNADSSNTALNMPVIPMNTIAEAVIEMINRGQIQITINGFSISNGLATTQINNKAATGEEVPRTIIVTTRSQYGLPEDAIVYCNFNQLYKIDPSTLQMWANILKRVPNSVLWLLRFPAVGEPNIQQYAQNMGLPQNRIIFSPVAPKEEHVRRGQLADVCLDTPLCNGHTTGMDVLWAGTPMVTMPGETLASRVAASQLTCLGCLELIAKNRQEYEDIAVKLGTDLEYLKKVRGKVWKQRISSPLFNTKQYTMELERLYLQMWEHYAAGNKPDHMIKPVEVTESA
- localisation_or_trafficking ([1]; control: Mono-OGT): decreases
- localisation_or_trafficking ([2]; glycan lost, control: Mono-OGT): decreases

B2: O-GlcNAc transferase (OGT): OGT S389A (protein)
parent chain: MASSVGNVADSTGLAELAHREYQAGDFEAAERHCMQLWRQEPDNTGVLLLLSSIHFQCRRLDRSAHFSTLAIKQNPLLAEAYSNLGNVYKERGQLQEAIEHYRHALRLKPDFIDGYINLAAALVAAGDMEGAVQAYVSALQYNPDLYCVRSDLGNLLKALGRLEEAKACYLKAIETQPNFAVAWSNLGCVFNAQGEIWLAIHHFEKAVTLDPNFLDAYINLGNVLKEARIFDRAVAAYLRALSLSPNHAVVHGNLACVYYEQGLIDLAIDTYRRAIELQPHFPDAYCNLANALKEKGSVAEAEDCYNTALRLCPTHADSLNNLANIKREQGNIEEAVRLYRKALEVFPEFAAAHSNLASVLQQQGKLQEALMHYKEAIRISPTFADAYSNMGNTLKEMQDVQGALQCYTRAIQINPAFADAHSNLASIHKDSGNIPEAIASYRTALKLKPDFPDAYCNLAHCLQIVCDWTDYDERMKKLVSIVADQLEKNRLPSVHPHHSMLYPLSHGFRKAIAERHGNLCLDKINVLHKPPYEHPKDLKLSDGRLRVGYVSSDFGNHPTSHLMQSIPGMHNPDKFEVFCYALSPDDGTNFRVKVMAEANHFIDLSQIPCNGKAADRIHQDGIHILVNMNGYTKGARNELFALRPAPIQAMWLGYPGTSGALFMDYIITDQETSPAEVAEQYSEKLAYMPHTFFIGDHANMFPHLKKKAVIDFKSNGHIYDNRIVLNGIDLKAFLDSLPDVKIVKMKCPDGGDNADSSNTALNMPVIPMNTIAEAVIEMINRGQIQITINGFSISNGLATTQINNKAATGEEVPRTIIVTTRSQYGLPEDAIVYCNFNQLYKIDPSTLQMWANILKRVPNSVLWLLRFPAVGEPNIQQYAQNMGLPQNRIIFSPVAPKEEHVRRGQLADVCLDTPLCNGHTTGMDVLWAGTPMVTMPGETLASRVAASQLTCLGCLELIAKNRQEYEDIAVKLGTDLEYLKKVRGKVWKQRISSPLFNTKQYTMELERLYLQMWEHYAAGNKPDHMIKPVEVTESA
- enzymatic_activity [3]: no change

B3: O-GlcNAc transferase (OGT): Thiamet-G (protein)
parent chain: MASSVGNVADSTGLAELAHREYQAGDFEAAERHCMQLWRQEPDNTGVLLLLSSIHFQCRRLDRSAHFSTLAIKQNPLLAEAYSNLGNVYKERGQLQEAIEHYRHALRLKPDFIDGYINLAAALVAAGDMEGAVQAYVSALQYNPDLYCVRSDLGNLLKALGRLEEAKACYLKAIETQPNFAVAWSNLGCVFNAQGEIWLAIHHFEKAVTLDPNFLDAYINLGNVLKEARIFDRAVAAYLRALSLSPNHAVVHGNLACVYYEQGLIDLAIDTYRRAIELQPHFPDAYCNLANALKEKGSVAEAEDCYNTALRLCPTHADSLNNLANIKREQGNIEEAVRLYRKALEVFPEFAAAHSNLASVLQQQGKLQEALMHYKEAIRISPTFADAYSNMGNTLKEMQDVQGALQCYTRAIQINPAFADAHSNLASIHKDSGNIPEAIASYRTALKLKPDFPDAYCNLAHCLQIVCDWTDYDERMKKLVSIVADQLEKNRLPSVHPHHSMLYPLSHGFRKAIAERHGNLCLDKINVLHKPPYEHPKDLKLSDGRLRVGYVSSDFGNHPTSHLMQSIPGMHNPDKFEVFCYALSPDDGTNFRVKVMAEANHFIDLSQIPCNGKAADRIHQDGIHILVNMNGYTKGARNELFALRPAPIQAMWLGYPGTSGALFMDYIITDQETSPAEVAEQYSEKLAYMPHTFFIGDHANMFPHLKKKAVIDFKSNGHIYDNRIVLNGIDLKAFLDSLPDVKIVKMKCPDGGDNADSSNTALNMPVIPMNTIAEAVIEMINRGQIQITINGFSISNGLATTQINNKAATGEEVPRTIIVTTRSQYGLPEDAIVYCNFNQLYKIDPSTLQMWANILKRVPNSVLWLLRFPAVGEPNIQQYAQNMGLPQNRIIFSPVAPKEEHVRRGQLADVCLDTPLCNGHTTGMDVLWAGTPMVTMPGETLASRVAASQLTCLGCLELIAKNRQEYEDIAVKLGTDLEYLKKVRGKVWKQRISSPLFNTKQYTMELERLYLQMWEHYAAGNKPDHMIKPVEVTESA
- localisation_or_trafficking ([2]; glycan gained, control: untreated cells): increases

B4: O-GlcNAc transferase (OGT): 5-thio-GlcNAc (protein)
parent chain: MASSVGNVADSTGLAELAHREYQAGDFEAAERHCMQLWRQEPDNTGVLLLLSSIHFQCRRLDRSAHFSTLAIKQNPLLAEAYSNLGNVYKERGQLQEAIEHYRHALRLKPDFIDGYINLAAALVAAGDMEGAVQAYVSALQYNPDLYCVRSDLGNLLKALGRLEEAKACYLKAIETQPNFAVAWSNLGCVFNAQGEIWLAIHHFEKAVTLDPNFLDAYINLGNVLKEARIFDRAVAAYLRALSLSPNHAVVHGNLACVYYEQGLIDLAIDTYRRAIELQPHFPDAYCNLANALKEKGSVAEAEDCYNTALRLCPTHADSLNNLANIKREQGNIEEAVRLYRKALEVFPEFAAAHSNLASVLQQQGKLQEALMHYKEAIRISPTFADAYSNMGNTLKEMQDVQGALQCYTRAIQINPAFADAHSNLASIHKDSGNIPEAIASYRTALKLKPDFPDAYCNLAHCLQIVCDWTDYDERMKKLVSIVADQLEKNRLPSVHPHHSMLYPLSHGFRKAIAERHGNLCLDKINVLHKPPYEHPKDLKLSDGRLRVGYVSSDFGNHPTSHLMQSIPGMHNPDKFEVFCYALSPDDGTNFRVKVMAEANHFIDLSQIPCNGKAADRIHQDGIHILVNMNGYTKGARNELFALRPAPIQAMWLGYPGTSGALFMDYIITDQETSPAEVAEQYSEKLAYMPHTFFIGDHANMFPHLKKKAVIDFKSNGHIYDNRIVLNGIDLKAFLDSLPDVKIVKMKCPDGGDNADSSNTALNMPVIPMNTIAEAVIEMINRGQIQITINGFSISNGLATTQINNKAATGEEVPRTIIVTTRSQYGLPEDAIVYCNFNQLYKIDPSTLQMWANILKRVPNSVLWLLRFPAVGEPNIQQYAQNMGLPQNRIIFSPVAPKEEHVRRGQLADVCLDTPLCNGHTTGMDVLWAGTPMVTMPGETLASRVAASQLTCLGCLELIAKNRQEYEDIAVKLGTDLEYLKKVRGKVWKQRISSPLFNTKQYTMELERLYLQMWEHYAAGNKPDHMIKPVEVTESA
- localisation_or_trafficking ([1]; control: untreated cells): decreases
- localisation_or_trafficking ([2]; glycan lost, control: untreated cells): decreases
